Patent publication US7271245B2, “Methods and compositions for inhibition of metastasis” (The Scripps Research Institute, priority 2004, dated 2007)

Experiments:
integrin αvβ5 = molecular target: T1, integrin αvβ5 (Homo sapiens, UniProt P06756+P18084); assay: Flow cytometry, binding to other RGD-recognizing integrins
T1 construct: UCLA-P3 lung adenocarcinoma cells (αv integrins, but no αvβ3); endogenous in cells; host or cells: UCLA-P3 human lung adenocarcinoma cells
Method: (§1) Flow cytometry. scFv binding to human tumor cells was analyzed by flow cytometry, initially with cloned scFv phage and then with purified scFv protein. Per sample, 2×10^5 tumor cells were blocked with goat serum and incubated either with scFv phage (2-5×10^10) (1 h at RT) followed by mouse anti-M13 mAb (Serotec) (30 min on ice) and goat FITC-anti mouse (Pierce) (30 min on ice), or with purified scFv (1.25 to 40 μg/ml, routinely 10 to 15 μg/ml) (45 min on ice), followed by mouse anti-FLAG mAb M2 (Sigma) (30 min on ice) and goat FITC-anti mouse. Binding/washing buffer was TBS with or without divalent cations (1 mM Ca^2+, 1 mM Mg^2+, 0.2 mM Mn^2+). Alternatively, tumor cells were washed in 10 ml of plasma (prepared freshly from human blood anticoagulated with 50 nM D-Phe-D-Pro-D-arginyl chloromethyl ketone, PPACK, Felding-Habermann et al., J. Biol. Chem. 271: 5892-5900, 1996), resuspended in plasma and then incubated sequentially, without washing, with purified scFv (45 min on ice), followed by anti-FLAG M2 (30 min on ice) and FITC-anti mouse (30 min on ice). All samples were counter stained with propidium iodide (PI) and analyzed on a Becton-Dickinson FACScan, with live gate set to exclude PI positive cells.
(§2) To generate therapeutic reagents that specifically react with activated αvβ3, a phage display library of single chain antibody fragments (scFv) was exploited. This library was derived from cancer patient blood lymphocyte cDNA libraries and allowed us to test the hypothesis that the expressed immune repertoire contains antibodies that recognize integrin αvβ3, and distinguish between its activated and non-activated forms. Mao et al., Proc. Natl. Acad. Sci. U.S.A 96: 6953-6958, 1999. A subtractive panning approach was designed based on variants of MDA-MB 435 human breast cancer cells. […] Apparently, these cells are selected during metastasis, as variant cells isolated from lung and bone metastases in immune deficient mice express constitutively activated αvβ3. To establish a cell population that uniformly expresses non-activated αvβ3, MDA-MB 435 parental cells were cloned by limiting dilution, and clones tested for αvβ3 functionality. […] A cell line, MDA-MB 435 Lung-Lung, was established which expressed αvβ3 in a constitutively activated form. This variant stems from a lung metastase of an immune deficient mouse whose mammary fat pad had been injected with parental MDA-MB 435 cells. […] After 5 rounds of subtracting the phage library on Parent Combo cells and panning on Lung-Lung cells, scFv clones were analyzed by flow cytometry for their ability to bind integrin αvβ3 on human tumor cells, and to distinguish between the activated and non-activated forms of the receptor (FIG. 1). […]

αvβ1 = molecular target: T2, αvβ1 (Homo sapiens, UniProt P05556+P06756); assay: as above
T2 construct: UCLA-P3 lung adenocarcinoma cells (αv integrins, but no αvβ3); endogenous in cells; host or cells: UCLA-P3 human lung adenocarcinoma cells
T2 sequence (P06756 31-889 limits assumed): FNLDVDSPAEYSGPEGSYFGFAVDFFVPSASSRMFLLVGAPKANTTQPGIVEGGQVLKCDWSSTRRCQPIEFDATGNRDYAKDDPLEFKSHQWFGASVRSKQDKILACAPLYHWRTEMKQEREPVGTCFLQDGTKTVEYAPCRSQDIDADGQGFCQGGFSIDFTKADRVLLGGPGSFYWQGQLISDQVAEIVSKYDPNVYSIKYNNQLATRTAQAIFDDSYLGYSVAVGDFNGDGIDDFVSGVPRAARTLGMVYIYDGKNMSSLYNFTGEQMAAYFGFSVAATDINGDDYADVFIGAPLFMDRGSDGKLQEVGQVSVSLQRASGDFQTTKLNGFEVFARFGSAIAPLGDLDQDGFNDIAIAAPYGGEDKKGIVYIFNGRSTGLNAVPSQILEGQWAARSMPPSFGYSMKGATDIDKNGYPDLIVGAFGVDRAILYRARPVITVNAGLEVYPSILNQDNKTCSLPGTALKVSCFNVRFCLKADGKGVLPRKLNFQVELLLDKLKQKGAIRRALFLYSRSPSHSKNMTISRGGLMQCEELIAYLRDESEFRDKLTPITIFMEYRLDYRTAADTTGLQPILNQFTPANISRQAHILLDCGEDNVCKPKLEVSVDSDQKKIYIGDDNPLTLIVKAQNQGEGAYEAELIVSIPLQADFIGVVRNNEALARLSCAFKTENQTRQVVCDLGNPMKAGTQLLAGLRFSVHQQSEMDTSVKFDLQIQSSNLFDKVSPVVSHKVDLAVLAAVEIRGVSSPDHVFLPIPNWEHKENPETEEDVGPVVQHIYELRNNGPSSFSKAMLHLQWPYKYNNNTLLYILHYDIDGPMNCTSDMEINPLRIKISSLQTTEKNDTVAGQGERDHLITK
T2 sequence (P06756 891-1048 partner limits assumed): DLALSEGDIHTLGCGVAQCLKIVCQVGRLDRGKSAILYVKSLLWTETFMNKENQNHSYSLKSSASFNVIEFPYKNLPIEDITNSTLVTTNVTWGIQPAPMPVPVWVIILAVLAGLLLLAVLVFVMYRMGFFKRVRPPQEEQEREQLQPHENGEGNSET
T2 sequence (P05556 21-798): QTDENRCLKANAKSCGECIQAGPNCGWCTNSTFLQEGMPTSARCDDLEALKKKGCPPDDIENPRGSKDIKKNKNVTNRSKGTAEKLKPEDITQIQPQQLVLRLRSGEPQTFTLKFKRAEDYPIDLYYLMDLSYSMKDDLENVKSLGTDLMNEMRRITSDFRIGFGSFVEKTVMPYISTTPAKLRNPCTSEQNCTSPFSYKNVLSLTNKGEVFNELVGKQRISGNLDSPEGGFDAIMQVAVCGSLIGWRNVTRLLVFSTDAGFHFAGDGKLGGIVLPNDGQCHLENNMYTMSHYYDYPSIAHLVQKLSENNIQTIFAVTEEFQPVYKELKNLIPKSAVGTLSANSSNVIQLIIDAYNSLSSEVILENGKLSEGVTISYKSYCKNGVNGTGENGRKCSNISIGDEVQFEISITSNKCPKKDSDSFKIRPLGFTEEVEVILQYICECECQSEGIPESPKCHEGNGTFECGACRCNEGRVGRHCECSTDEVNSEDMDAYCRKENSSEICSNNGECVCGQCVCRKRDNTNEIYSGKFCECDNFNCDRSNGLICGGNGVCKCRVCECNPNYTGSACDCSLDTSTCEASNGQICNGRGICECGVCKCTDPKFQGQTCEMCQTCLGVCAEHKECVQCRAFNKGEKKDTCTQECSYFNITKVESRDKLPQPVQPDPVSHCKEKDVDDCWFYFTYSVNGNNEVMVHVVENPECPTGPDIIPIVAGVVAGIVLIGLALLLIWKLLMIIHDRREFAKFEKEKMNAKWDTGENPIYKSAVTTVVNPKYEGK
Method: as §1, §2

α5β1 = molecular target: T3, α5β1 (Homo sapiens, UniProt P05556+P08648); assay: as above
T3 construct: endogenous in cells
T3 sequence (P08648 42-894 limits assumed): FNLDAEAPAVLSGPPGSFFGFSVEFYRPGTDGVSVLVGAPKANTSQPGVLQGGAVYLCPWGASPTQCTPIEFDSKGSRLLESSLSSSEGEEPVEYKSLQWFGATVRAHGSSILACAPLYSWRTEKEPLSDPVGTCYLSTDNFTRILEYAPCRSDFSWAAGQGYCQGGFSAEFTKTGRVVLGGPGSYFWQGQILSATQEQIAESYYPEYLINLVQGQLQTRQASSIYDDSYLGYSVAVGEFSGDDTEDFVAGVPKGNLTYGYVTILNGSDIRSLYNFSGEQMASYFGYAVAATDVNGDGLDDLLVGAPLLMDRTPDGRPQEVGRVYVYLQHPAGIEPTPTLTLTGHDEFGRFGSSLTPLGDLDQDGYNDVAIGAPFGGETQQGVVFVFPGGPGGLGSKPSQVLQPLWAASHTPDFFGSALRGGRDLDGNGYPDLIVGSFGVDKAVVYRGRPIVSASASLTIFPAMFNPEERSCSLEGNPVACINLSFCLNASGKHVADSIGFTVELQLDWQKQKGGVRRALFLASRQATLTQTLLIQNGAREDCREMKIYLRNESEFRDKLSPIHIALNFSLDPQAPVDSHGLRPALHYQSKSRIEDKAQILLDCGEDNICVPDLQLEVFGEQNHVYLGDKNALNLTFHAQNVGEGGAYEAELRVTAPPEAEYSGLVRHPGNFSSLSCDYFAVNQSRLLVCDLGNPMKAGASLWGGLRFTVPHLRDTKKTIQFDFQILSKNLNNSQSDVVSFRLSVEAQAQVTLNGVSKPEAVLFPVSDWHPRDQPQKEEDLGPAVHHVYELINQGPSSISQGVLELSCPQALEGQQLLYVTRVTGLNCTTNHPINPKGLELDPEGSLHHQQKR
T3 sequence (P08648 895-1049 partner limits assumed): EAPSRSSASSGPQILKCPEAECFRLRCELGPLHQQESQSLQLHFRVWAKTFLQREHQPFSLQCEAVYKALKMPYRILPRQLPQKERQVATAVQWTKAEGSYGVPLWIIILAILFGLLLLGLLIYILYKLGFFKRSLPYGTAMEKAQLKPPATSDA
T3 sequence (P05556 21-798): as the sequence (P05556 21-798) above
Method: as §1, §2

alpha IIb beta 3 = molecular target: T4, alpha IIb beta 3 (Homo sapiens, UniProt P05106+P08514); assay: as above
T4 construct: M21-LIIb cells (αIIbβ3, no αv integrin); expressed in transfected cells; host or cells: M21-LIIb human melanoma cells
Method: as §1, §2

tumor cell integrin αvβ3 = molecular target: T5, tumor cell integrin αvβ3 (Homo sapiens, UniProt P05106+P06756); assay: Flow cytometry, scFv binding to BMS cells in fresh human plasma; conditions: saturable binding
T5 construct: Primary metastatic cells from blood samples of stage IV breast cancer patients (BCM1, BCM2, BMS) were isolated; endogenous in cells; host or cells: BMS cells (primary metastatic breast cancer cells from patient blood)
T5 sequence (P06756 31-889 limits assumed): as the sequence (P06756 31-889 limits assumed) above
T5 sequence (P06756 891-1048 partner limits assumed): as the sequence (P06756 891-1048 partner limits assumed) above
T5 sequence (P05106 27-788): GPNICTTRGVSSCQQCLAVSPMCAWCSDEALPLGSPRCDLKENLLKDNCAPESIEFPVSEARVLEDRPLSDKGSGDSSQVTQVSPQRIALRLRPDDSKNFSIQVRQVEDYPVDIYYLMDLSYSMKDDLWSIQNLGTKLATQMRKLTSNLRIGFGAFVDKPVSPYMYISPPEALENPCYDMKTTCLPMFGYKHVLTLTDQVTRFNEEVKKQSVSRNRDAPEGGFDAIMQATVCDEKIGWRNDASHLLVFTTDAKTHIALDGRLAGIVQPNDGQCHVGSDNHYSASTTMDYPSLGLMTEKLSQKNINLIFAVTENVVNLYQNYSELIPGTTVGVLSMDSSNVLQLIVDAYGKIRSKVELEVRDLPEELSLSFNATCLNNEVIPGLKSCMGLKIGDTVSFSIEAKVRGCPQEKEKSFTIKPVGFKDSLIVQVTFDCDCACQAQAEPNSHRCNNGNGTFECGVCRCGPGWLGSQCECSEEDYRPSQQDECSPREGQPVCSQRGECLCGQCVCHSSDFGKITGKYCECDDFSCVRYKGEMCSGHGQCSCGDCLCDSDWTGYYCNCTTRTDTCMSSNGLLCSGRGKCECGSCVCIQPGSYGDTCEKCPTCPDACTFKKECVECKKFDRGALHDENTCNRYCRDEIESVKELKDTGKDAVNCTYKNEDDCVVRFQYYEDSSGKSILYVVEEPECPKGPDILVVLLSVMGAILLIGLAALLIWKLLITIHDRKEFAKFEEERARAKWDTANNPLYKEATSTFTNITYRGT
Method: FIG. 4. Patient derived ligand mimetic scFvs Bc-12 and Bc-15 against activated αvβ3 are internalized and bind to breast cancer cells in human plasma and affect breast cancer survival. Flow cytometric analysis with human metastatic breast cancer cells (BMS) isolated from a patient blood sample. All binding and washing steps were done in fresh human plasma prepared from blood anticoagulated with 50 nM PPACK.
Flow cytometry. scFv binding to human tumor cells was analyzed by flow cytometry, initially with cloned scFv phage and then with purified scFv protein. Per sample, 2×10^5 tumor cells were blocked with goat serum and incubated either with scFv phage (2-5×10^10) (1 h at RT) followed by mouse anti-M13 mAb (Serotec) (30 min on ice) and goat FITC-anti mouse (Pierce) (30 min on ice), or with purified scFv (1.25 to 40 μg/ml, routinely 10 to 15 μg/ml) (45 min on ice), followed by mouse anti-FLAG mAb M2 (Sigma) (30 min on ice) and goat FITC-anti mouse. […] All samples were counter stained with propidium iodide (PI) and analyzed on a Becton-Dickinson FACScan, with live gate set to exclude PI positive cells.
Antimetastatic activity of scFv antibodies against activated αvβ3 inhibit hematogenous breast cancer metastasis in vivo. […] The antibodies bound the cells in a saturable manner with half maximal binding measured at 40 nM scFv (1 μg/ml) (FIG. 4).

T1 sequence (P06756 31-889 limits assumed): as the sequence (P06756 31-889 limits assumed) above
T1 sequence (P06756 891-1048 partner limits assumed): as the sequence (P06756 891-1048 partner limits assumed) above
T1 sequence (P18084 24-799): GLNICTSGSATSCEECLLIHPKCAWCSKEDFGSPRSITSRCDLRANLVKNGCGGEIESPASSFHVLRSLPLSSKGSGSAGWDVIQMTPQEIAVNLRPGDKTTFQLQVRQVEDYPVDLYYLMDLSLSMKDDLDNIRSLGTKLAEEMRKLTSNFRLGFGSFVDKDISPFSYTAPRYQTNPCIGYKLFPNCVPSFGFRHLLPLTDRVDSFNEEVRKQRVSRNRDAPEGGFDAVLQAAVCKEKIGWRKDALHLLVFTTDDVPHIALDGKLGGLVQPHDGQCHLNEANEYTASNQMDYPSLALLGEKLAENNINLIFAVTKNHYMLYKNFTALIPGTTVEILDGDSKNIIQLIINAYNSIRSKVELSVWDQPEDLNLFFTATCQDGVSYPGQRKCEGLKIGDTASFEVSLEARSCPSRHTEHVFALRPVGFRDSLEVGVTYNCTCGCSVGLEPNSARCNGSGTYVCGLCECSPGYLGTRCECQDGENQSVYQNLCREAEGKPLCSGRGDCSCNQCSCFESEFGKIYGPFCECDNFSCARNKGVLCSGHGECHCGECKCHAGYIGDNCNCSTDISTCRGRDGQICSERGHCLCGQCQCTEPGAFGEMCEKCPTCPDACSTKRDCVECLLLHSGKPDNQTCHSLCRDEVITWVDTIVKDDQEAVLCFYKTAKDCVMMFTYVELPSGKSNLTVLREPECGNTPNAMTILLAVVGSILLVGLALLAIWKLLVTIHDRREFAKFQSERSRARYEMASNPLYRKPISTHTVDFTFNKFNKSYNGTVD

B1: Bc-12: patient derived human scFv antibody against activated αvβ3 with RGD motif in CDR-H3; cDNA ATCC PTA-6303 (protein)
scFv: MAQVQLVQSGAEVKKPGASVKVSCKASGYTFSNYGITWVRQAPGQGLEWMGWINNGNTHYAQKFQGRVTMTTDTSTSTAYMELRSLRSDDTAVYYCARDPRGDDEPYWGQGTLVTVSSGGGGSGGGGSGGGGSEIVLTQSPLSLPVTLGQPASISCRSSQNLVYSDGNTYLSWFQQRPGQSPRRLIYKVSNRDSGVPDRFSGSGSGTDFTLKISRVEAEDIGVYYCMQGTHWPPRTFGQGTKVEIKRGLGGLVDYKDDDDK
In the case of B1, the “binding to integrin αvβ5” value (integrin αvβ5) is reported as “do not bind”, the “binding to αvβ1” value (αvβ1) is reported as “do not bind” and the “binding to α5β1” value (α5β1) is reported as “do not bind”. The “binding to alpha IIb beta 3” value (alpha IIb beta 3) was “do not bind”, the half maximal binding (tumor cell integrin αvβ3) was 1 µg/mL and the EC50 (tumor cell integrin αvβ3; read-out: half maximal binding) was 40 nM.
